The record followed here is the RNAGym collection of RNA variant scans (doi:10.1073/pnas.2313332121).

B1: TPR 5TU (parent)
chain: GGAUCUUCUCGAUCUAACAAAAAAGACAAAUCUGCCACAAAGCUUGAGAGCAUCUUCGGAUGCAGAGGCGGCAGCCUUCGGUGGCGCGAUAGCGCCAACGUUCUCAACUAUGACACGCAAAACGCGUGCUCCGUUGAAUGGAGUUUAUCAUG
B2: TPR t1 (parent)
chain: GACCAAUCUGCCCUCAGAGCUCGAGAACAUCUUCGGAUGCAGAGGAGGCAGGCUUCGGUGGCGCGAUAGCGCCAACGUCCUCAACCUCCAAUGCAUCCCACCACAUGAUGAUGCCUGAAGAGCCUUGGUUUUUUG

For part of these data: Fewer inactive variants are shown than the library holds.

In the first data set the parent is B1. Description: polymerase ribozyme fitness, log enrichment relative to wild type (log ratio); higher = more active; in vitro selection for triplet polymerase activity. A digest of the protocol:
(§1)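 Fitness measures genotype enrichment against wild-type enrichment on a logarithmic scale, with inverse-variance-weighted averaging of replicates. The logarithm is base 2, and genotypes were kept only with ≥10 input reads and ≥1 read per output in Illumina sequencing. The sequenced libraries came from one triplicate in vitro selection round, including frozen incubation at −7 °C, of PCR-built, transcribed mutant libraries of each subunit of a heterodimeric triplet polymerase ribozyme.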
For the variant A3C C10A G11U U55A G81C C85U G128A, the “polymerase ribozyme fitness (log ratio)” value was at most -4.2.
On to A3C A41G G84A G126C, for which the “polymerase ribozyme fitness (log ratio)” value is -0.499.
Still for that read-out and setting: under A3C C69A C87G U146C C149U U151G stands at most -4.2; under A3C C85U C95U C114U G133C, at most -4.2; under A3C U31G C51U A60C A122C G140A, at most -4.2.
Regarding A3C C14G A52C C93U G141U, the “polymerase ribozyme fitness (log ratio)” value is -4.16.
A3C U101G C105U A138C: the “polymerase ribozyme fitness (log ratio)” value is -4.17.
Take A3G C14G U61G G71A G86C A91C C105G C114G G143A U145A: the “polymerase ribozyme fitness (log ratio)” value was at most -4.2.
Same read-out and setting: in the case of A3G C36G U77C it was at most -4.2; in that of A3C U90A, -4.17.
With A3C U45A G67U G71C G80C C95A C103A, the “polymerase ribozyme fitness (log ratio)” value is at most -4.2.
Regarding A3C A97U U135G G140C, the “polymerase ribozyme fitness (log ratio)” value is at most -4.2.
Consider A3C U6A C35A C95U U102C C103G G143U, for which the “polymerase ribozyme fitness (log ratio)” value is at most -4.2.
Still for that read-out and setting: under A3G C27U G86A stands -3.94; under A3C C14A A26G G50C A91G G117A C125U G140A G143C, at most -4.2.
As for A3G C32G C35U A49C G50C C85A C103U C118G, the “polymerase ribozyme fitness (log ratio)” value is at most -4.2.
Same read-out and setting: under A3G A17U C85A A106G A107U C118G U134A A142G C149U stands at most -4.2; under A3C G70C C87G C96G A107G U146G, at most -4.2; under A3G A29G U82A, at most -4.2.
Take A3C A52C U55A C57A G81A G94C: the “polymerase ribozyme fitness (log ratio)” value was -4.03.
For the variant A3C U4G G58C C93U C149U, the “polymerase ribozyme fitness (log ratio)” value was -3.55.
A3C A17U A26U C54A C75U C93U C103G G143C: the “polymerase ribozyme fitness (log ratio)” value is at most -4.2.
Consider A3G A147U, for which the “polymerase ribozyme fitness (log ratio)” value is 1.09.
As to A3C U4A, the “polymerase ribozyme fitness (log ratio)” value is 0.257.
For A3C C32U G59A, the “polymerase ribozyme fitness (log ratio)” value was -3.67.
Same read-out and setting: under A3G A30G C38A G83A U101G stands at most -4.2; under A3G C43U A60C G84A U130A, at most -4.2; under A3G C27U U55A U90C G94U C114G C116A, at most -4.2.
With A3C U7A G84U U144G, the “polymerase ribozyme fitness (log ratio)” value was -2.38.
For A3C U56G C57G C116G, the “polymerase ribozyme fitness (log ratio)” value is -2.89.
With A3C C18G U56A C57A C93G U146G, the “polymerase ribozyme fitness (log ratio)” value is at most -4.2.
On to A3G A12G A29G C38U G42C G86U A138C, for which the “polymerase ribozyme fitness (log ratio)” value was at most -4.2.
With A3C A49C C96A, the “polymerase ribozyme fitness (log ratio)” value was at most -4.2.
As to A3C U4A U6C U15C A17G C38U C54U C72U G86U U127G, the “polymerase ribozyme fitness (log ratio)” value is at most -4.2.
On the same count and under the same terms, in the case of A3C G46C A49G G92A U104G A113U G124A A142U it was at most -4.2; in that of A3C C27U C35G C57A G84A C87U, at most -4.2; in that of A3C A12U U56A C93A A98U A107G C129U, at most -4.2.
With A3G A60C C93U U145G, the “polymerase ribozyme fitness (log ratio)” value is -2.53.
Same read-out and setting: under A3C G34A C96G stands -3.63; under A3C C43U A89U G92A C125G, at most -4.2.
As for A3C U4G A49U U61C G70A G92U, the “polymerase ribozyme fitness (log ratio)” value was at most -4.2.
Consider A3G A52U C54U U77G A121G A122G A137G, for which the “polymerase ribozyme fitness (log ratio)” value is at most -4.2.
Same read-out and setting: under A3C C18U A49U G62C A66C G67U C96A C99G U134C U145C A147C U151G stands at most -4.2.
In the case of A3C A16C G48A C96G, the “polymerase ribozyme fitness (log ratio)” value is -3.42.
Same read-out and setting: under A3C C93A A98U stands -1.79; under A3C C10G C57A G83A, -3.78.
As to A3C A30U C93U A115G, the “polymerase ribozyme fitness (log ratio)” value is at most -4.2.
As for A3G C14U G34A G48A C85A G126U G136A U144G, the “polymerase ribozyme fitness (log ratio)” value was at most -4.2.
Regarding A3C C85U, the “polymerase ribozyme fitness (log ratio)” value was -1.46.
The same measure, in the same setting: under A3G A19U U55C G84A stands -0.956; under A3C A12G G25C A52C C93U C116A, -3.91; under A3G A16G A24C A49G G80C, at most -4.2.
Consider A3C C76U C96A, for which the “polymerase ribozyme fitness (log ratio)” value is -0.525.
Consider A3G A23U C85A A106U G133U G143U, for which the “polymerase ribozyme fitness (log ratio)” value is at most -4.2.
Same read-out and setting: in the case of A3C G58A C87U it was -0.495; in that of A3C G58C C63U C95G, -1.68; in that of A3C A28G A37U A52U G83U, at most -4.2.
On the same count and under the same terms, in the case of A3C U4G A21C C38G A41C G68A G81A C85U C95U C116G it was at most -4.2.
Still for that read-out and setting: under A3G A26U C72U stands at most -4.2.
Consider A3G C18U C27G A28U U78A, for which the “polymerase ribozyme fitness (log ratio)” value is at most -4.2.
On the same count and under the same terms, under A3G A49C C51U G59C C95U C131G stands at most -4.2.
For A3G C8A U44A A47C U56A G84C C87G, the “polymerase ribozyme fitness (log ratio)” value was at most -4.2.
Still for that read-out and setting: in the case of G1U it was 0.22; in that of A3G A20C U53A G81C A121G, -1.59.
Still for that read-out and setting: in the case of A3C A24G C36U A41U C72U C85A A91U U151A G152C it was at most -4.2.

The variants in another data set derive from B2. The description is as above. The method, boiled down: as §1
For G128C U131A, the “polymerase ribozyme fitness (log ratio)” value is -1.91.
For U130G U132A, the “polymerase ribozyme fitness (log ratio)” value is -1.3.
On to U131A U132C, for which the “polymerase ribozyme fitness (log ratio)” value came to 0.142.
Take U129A U132A: the “polymerase ribozyme fitness (log ratio)” value is -1.56.
As for U126C U132C, the “polymerase ribozyme fitness (log ratio)” value was -1.79.
On the same count and under the same terms, in the case of U129G U132A it was -3.7; in that of G128A U130G, -1.43.
Take U130A G135U: the “polymerase ribozyme fitness (log ratio)” value is -0.655.
As to G127C G128U U131C, the “polymerase ribozyme fitness (log ratio)” value is -1.37.
Consider U126A, for which the “polymerase ribozyme fitness (log ratio)” value is -1.69.
Still for that read-out and setting: in the case of U126G it was -1.7; in that of U126C, -0.485; in that of G127A G128U, -2.41.
Same read-out and setting: in the case of G128U U130C it was 0.0266.
U130A U133A: the “polymerase ribozyme fitness (log ratio)” value was -1.4.
In the case of U131A, the “polymerase ribozyme fitness (log ratio)” value is -0.123.
For U131G, the “polymerase ribozyme fitness (log ratio)” value was -0.452.
With U131C, the “polymerase ribozyme fitness (log ratio)” value was found to be 0.237.
Still for that read-out and setting: in the case of G127U U130G it was -0.841.
